Data from paper PMC8203779, “Distinct mechanisms of the human mitoribosome recycling and antibiotic resistance” (Nature Communications, 2021).

Target: mitoribosomal protein uL12m (39S subunit, L10-L12 stalk) (human (endogenous in HEK293S GnTI), UniProt P52815 37-198)
Test: cryo-EM structure; model PoTC (150 nM 55S mitoribosomes + 50 uM puromycin, 10 min 37 °C) with 15 uM RRFmt (5 min 37 °C), then 5 uM EF-G2mt + 200 uM GMPPCP (5 s, 30 s, 2 min, 37 °C), HEPES polymix buffer pH 7.5; single-particle classes: Class I 55S•RRFmt, Class II 55S•RRFmt•EF-G2mt•GMPPCP, Class III 39S•RRFmt•EF-G2mt•GMPPCP
Details: both partners purified

B1: human EF-G2mt (recycling-specific mitochondrial homolog of elongation factor G) (natural protein)
chain: MLTNLRIFAMSHQTIPSVYINNICCYKIRASLKRLKPHVPLGRNCSSLPGLIGNDIKSLHSIINPPIAKIRNIGIMAHIDAGKTTTTERILYYSGYTRSLGDVDDGDTVTDFMAQERERGITIQSAAVTFDWKGYRVNLIDTPGHVDFTLEVERCLRVLDGAVAVFDASAGVEAQTLTVWRQADKHNIPRICFLNKMDKTGASFKYAVESIREKLKAKPLLLQLPIGEAKTFKGVVDVVMKEKLLWNCNSNDGKDFERKPLLEMNDPELLKETTEARNALIEQVADLDDEFADLVLEEFSENFDLLPAEKLQTAIHRVTLAQTAVPVLCGSALKNKGIQPLLDAVTMYLPSPEERNYEFLQWYKDDLCALAFKVLHDKQRGPLVFMRIYSGTIKPQLAIHNINGNCTERISRLLLPFADQHVEIPSLTAGNIALTVGLKHTATGDTIVSSKSSALAAARRAEREGEKKHRQNNEAERLLLAGVEIPEPVFFCTIEPPSLSKQPDLEHALKCLQREDPSLKVRLDPDSGQTVLCGMGELHIEIIHDRIKREYGLETYLGPLQVAYRETILNSVRATDTLDRTLGDKRHLVTVEVEARPIETSSVMPVIEFEYAESINEGLLKVSQEAIENGIHSACLQGPLLGSPIQDVAITLHSLTIHPGTSTTMISACVSRCVQKALKKADKQVLEPLMNLEVTVARDYLSPVLADLAQRRGNIQEIQTRQDNKVVIGFVPLAEIMGYSTVLRTLTSGSATFALELSTYQAMNPQDQNTLLNRRSGLT
notes: mitochondrial elongation factor G2 (EF-G2mt), human, 87 kD; contact residues up to Leu778 are printed; Cloned into pGEX6.1; also called EF-G2mt-GMPPCP; source: Rossetta (pLysS + RARE) cells, purified (GSTrap HP, GST cleaved with 3C protease, HiTrap Q HP)
B1: binds.
